Measurements from the supplement of paper PMC7125110.
± gives the standard error. This sample holds only a part of the variants without activity.

B1: glmS ribozyme (parent)
chain: AUAAAAGCGCCAGAACUACAGAAAUGUAGUUGACGAGGAGGAGGUUUAUCGAAUUUUCGGCGGAUGCCUCCAAA

Columns and labels:
Conditions in all cases: with glucosamine-6-phosphate
[1] = variants of: B1; assay: self-cleavage kobs at 40 uM GlcN6P; higher = faster cleavage; RNA array
In short: (§1)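 Glucosamine-6-phosphate, from 40 μM to 10 mM in HEPES/KCl/Mg(OAc)2 buffer, was flowed over sequenced MiSeq chips carrying barcoded ribozyme variants transcribed in situ by E. coli RNA polymerase. A hybridised Cy3 probe tracked the variants at 37 °C as tiles were imaged over ~14 h. kobs, kcat and KM were obtained by fitting normalised per-tile medians to exponential decays and then applying weighted Michaelis–Menten fits across concentrations.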

[2] = variants of: B1; assay: self-cleavage kobs at 160 uM GlcN6P; higher = faster cleavage; RNA array
In short: as §1

[3] = variants of: B1; assay: self-cleavage kobs at 640 uM GlcN6P; higher = faster cleavage; RNA array
In short: as §1

[4] = variants of: B1; assay: self-cleavage kobs at 2500 uM GlcN6P; higher = faster cleavage; RNA array
In short: as §1

[5] = variants of: B1; assay: self-cleavage kobs at 10000 uM GlcN6P; higher = faster cleavage; RNA array
In short: as §1

Variant | self-cleavage kobs at 40 uM GlcN6P [1] [s⁻¹] | self-cleavage kobs at 160 uM GlcN6P [2] [s⁻¹] | self-cleavage kobs at 640 uM GlcN6P [3] [s⁻¹] | self-cleavage kobs at 2500 uM GlcN6P [4] [s⁻¹] | self-cleavage kobs at 10000 uM GlcN6P [5] [s⁻¹]
G35A A64U C71A | < 1e-05 | – | – | – | –
G9U A14C | < 1e-05 | < 1e-05 | < 1e-05 | – | –
A39G G43U G44U U55G | < 1e-05 | – | < 1e-05 | < 1e-05 | < 1e-05
G13U G62A | < 1e-05 | – | – | < 1e-05 | < 1e-05
C8A A48U | < 1e-05 | – | < 1e-05 | < 1e-05 | –
G7A U47A | < 1e-05 | < 1e-05 | – | – | –
G51C C61U | < 1e-05 | – | – | – | –
C10A U30G C71U | < 1e-05 | – | – | – | < 1e-05
G9A G13A G43U G60A | < 1e-05 | – | – | – | –
U54A U55C | 0.00104 ± 0.00016 | 0.00215 ± 0.00046 | 0.00479 ± 0.001 | 0.0235 ± 0.0076 | 0.0628 ± 0.022
G41C G59U | < 1e-05 | – | < 1e-05 | < 1e-05 | < 1e-05
C16G C34G G40C U55A C58U U69A | < 1e-05 | – | – | – | < 1e-05
U49A A52C | < 1e-05 | < 1e-05 | < 1e-05 | – | < 1e-05
C8G U31G | < 1e-05 | < 1e-05 | < 1e-05 | < 1e-05 | –
G44U C68A | < 1e-05 | < 1e-05 | < 1e-05 | – | < 1e-05
A36C G43A U47C | < 1e-05 | – | – | – | –
A6G U49C | < 1e-05 | < 1e-05 | < 1e-05 | < 1e-05 | –
A6C A42G | < 1e-05 | < 1e-05 | – | 6.82e-05 ± 1.8e-05 | 9.6e-05 ± 1.1e-05
G32C U57C | < 1e-05 | < 1e-05 | < 1e-05 | – | –
C11U G41U A64U | < 1e-05 | < 1e-05 | – | < 1e-05 | < 1e-05
G9A U47G A48U | < 1e-05 | – | – | – | –
G38A A39G U45G C50G | < 1e-05 | – | – | < 1e-05 | –
A12U G29U A33U A42U U49A | < 1e-05 | – | – | – | –
C34G G37U A39C A53U | < 1e-05 | – | – | – | –

Variant | self-cleavage kobs at 40 uM GlcN6P [1] [s⁻¹] | self-cleavage kobs at 160 uM GlcN6P [2] [s⁻¹] | self-cleavage kobs at 640 uM GlcN6P [3] [s⁻¹] | self-cleavage kobs at 2500 uM GlcN6P [4] [s⁻¹] | self-cleavage kobs at 10000 uM GlcN6P [5] [s⁻¹]
U56C G60U C68U | < 1e-05 | – | – | – | –
C10G A14U C34A U49G | < 1e-05 | – | – | – | –
U45A G66A | 0.000969 ± 0.00013 | 0.00224 ± 0.00044 | 0.00848 ± 0.0021 | 0.00884 ± 0.002 | 0.0359 ± 0.011
A39G U49C A52G G63U C68G | < 1e-05 | – | – | – | –
C11G G13A G41U U45G G66A | < 1e-05 | – | – | – | –
G38A U57A U65C | < 1e-05 | – | – | – | –
A36C G40U C67U | < 1e-05 | < 1e-05 | < 1e-05 | – | < 1e-05
G9A A53U | < 1e-05 | < 1e-05 | < 1e-05 | – | –
A42G U55A | 0.00136 ± 0.00015 | 0.00202 ± 0.00052 | 0.0283 ± 0.0091 | 0.0289 ± 0.0077 | 0.0423 ± 0.013
G40C U54G U56G | 4.04e-05 ± 1.9e-05 | – | – | 0.000625 ± 0.00018 | 0.000719 ± 0.00012
G40A C71A | 0.00036 ± 4.6e-05 | 0.000678 ± 0.00011 | 0.00251 ± 0.00036 | 0.00849 ± 0.0017 | 0.0185 ± 0.0049
G43C U46A | < 1e-05 | – | – | < 1e-05 | < 1e-05
A15G G21U A33G | < 1e-05 | – | – | – | < 1e-05
U30C G35A C67U | < 1e-05 | – | – | – | –
G41C C50A G63U C67A | < 1e-05 | – | – | – | < 1e-05
G35C U46G | < 1e-05 | < 1e-05 | < 1e-05 | < 1e-05 | < 1e-05
U30G G60C | < 1e-05 | – | < 1e-05 | – | < 1e-05
U45C C61G | < 1e-05 | < 1e-05 | < 1e-05 | < 1e-05 | < 1e-05
A15U G38U C50G | 0.000125 ± 3.7e-05 | – | – | – | –
A14G U69C | 0.00132 ± 0.00036 | – | – | – | 0.00782 ± 0.0029
U46C U57A | < 1e-05 | – | – | – | 5.47e-05 ± 1.8e-05
U57G G60U | < 1e-05 | < 1e-05 | < 1e-05 | < 1e-05 | –
C8G G13A | < 1e-05 | – | < 1e-05 | < 1e-05 | < 1e-05
